Data set [1] addresses T1, PacI (R.PacI) restriction endonuclease (Pseudomonas alcaligenes, UniProt D5MNX7 1-142).
T1 sequence: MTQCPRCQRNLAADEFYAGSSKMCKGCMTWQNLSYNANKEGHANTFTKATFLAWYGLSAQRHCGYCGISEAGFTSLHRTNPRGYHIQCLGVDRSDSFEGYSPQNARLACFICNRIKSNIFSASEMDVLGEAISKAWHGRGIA
The data set can be described thus: X-ray crystallography.

Data set [2] addresses T1, PacI (R.PacI) restriction endonuclease. The data set can be described thus: X-ray crystallography. The source holds these as a separate data set.

Read-outs that look alike come from different tables or passages of the source.

B1: 18 bp PacI cognate duplex (uncleaved) (dsDNA)
DNA 1: GAGGCTTAATTAAGCCGC
DNA 2: GCGGCTTAATTAAGCCTC
Take B1: the binding result in data set [1] was “binds”.

B2: 18 bp PacI cognate duplex, cleaved product (dsDNA)
DNA 1: GAGGCTTAAT
DNA 2: TAAGCCGC
DNA 3: GCGGCTTAAT
DNA 4: TAAGCCTC
modifications: 5' phosphate at the cleaved ends
For the molecule B2, in data set [2], the binding result is “binds”.

Source of the values: publication PMC2886031.
